This data set in a line: soluble on expression in E. coli; label from the status in PepcDB or PDB records.
As to “MGSDKIHHHHHHMIKSKLKGFAAVTVACLAVTACGSDSNNEDGTDQNATYVQFYNASAGSTATALKVADKTYESVIYGDTMPRFTSTAGVSAIEVMAKDASDKDISIYKEDIDLKVATDHFFVLHGDFAEPKLLNINYSRTELDKLNEVAENSKMQLLIANTAVHAQAFDAYVSKSTQTFADAVMLGSVAYGEASQPQVMDTGEYKVYLTPAGTTNVSYTTANIKFSAKVPYKLIIREGFGASDSKITLDSVDSTTNVRNHVALEASVDYRVFNGLGSHIIDVKVASSKQETLFSEVPSFGVTAYQGAEFNDFGVSVFDHGTQNKLLDNVLITLNQDDIKTIFIYEQATEQGSQVKAMEMKQTQTPSPYSFKFDIVSFADKSNLTVYFLKANDTIETAVNKITAVNPASPQSVTVPAGEYSIKVIAVENGTKTVVYASDLMDFSNEDNVTMVLNKDPATSFGYNLIKI”, the “soluble on expression in E. coli” value is listed as “not soluble”. The entry for “MGSDKIHHHHHHMINQAKIEHSGLVDDFIGLYQALNKDNLHLLAEVYDDNICFIDPMHQVNGLNALTQYFAKLYQNIGYIHFEIKEVLQDDTQASLFWQMQYRHPKLNKGEVVRVDGMSQLKFHQRIYFHRDYFDLGQMLYEHLPCMGGLIRLLKDRAAK” is “not soluble”.

As to “MGSDKIHHHHHHMIRLSNENTIFFMDKENVPIASCQSGDTVIFETKDCFSDQITNEEQALTSIDFNRVNPATGPLYVEGARRGDMLEIEILDIKVGKQGVMTAAPGLGALGESLNSPTTKLFPIEGDDVVYSTGLRLPLQPMIGVIGTAPPGEPINNGTPGPHGGNLDTKDIKPGTTVYLPVEVDGALLALGDLHAAMGDGEILICGVEIAGTVTLKVNVKKERMFPLPALKTDTHFMTIASAETLDAAAVQATKNMATFLANRTALSIEEAGMLLSGAGDLYVSQIVNPLKTARFSLALHYFEKLGVDLCN”, the “soluble on expression in E. coli” value is listed as “not soluble”. The entry for “MGSDKIHHHHHHMIRMNISVRNLKEITDLLSTIVSEAKFKVDENGMSVTAVDPAHVAMIRLEVPKEVFSEFRSDGTEEIALDIDRLKSVIRLANSSENVGITKDKEKLKFDLGNISKSVSLLDPSTIVTPKIPNIASEYYAIIKRSDFERGLRAAEDISDSIRFVLSSEGFRATSHSESEESEMVLPKDMLSDLSCSDTIKSSYPLEYLLKFIKAVSSADSLKISFRDDYPLSIEFYLDQNPSAKIKGLFLLAPRMEQ” is “not soluble”; for “MGSDKIHHHHHHMIRSLWIAKTGLDAQQTQMDVISNNLANVSTNGFKRGRAVFEDLMYQNIRQPGALSSDQTTLPSGLQLGTGVRPVATERIHTQGNPQQTGNSKDVAIIGQGFFQVAMPDGTTAYTRDGSFQVDQNGQLVTSSGFVIQPAITIPANTTSMTVARDGTVSVTQPGSSNNVQVGQLQLATFMNPAGLESMGENLYVQTDASGAPNTTVPGLNGAGVLQQNYVEASNVNVVEELVSMIQTQRAYEINSKAVQTSDQMLQRLTQMG” it is “not soluble”; for “MGSDKIHHHHHHMISDHDGEFGSQNVRAALPSLMALRCFEAAARHEHFSRAADELHLTHGAVSRAVRLLEDDLGVALFERRSRRVFLTDAGRKLAQAVHDGLHLMRQAAHELRTDAARAQRWVLSCEPTLLMRWLIPRWPDFQATYPRVDIHLAAAGGPFSFDHGIDIAIRRNDFAWPAGYHAERLFTERVGPVCRPDRVDTWFSGGRDDRALKRGAPRLHTRTRPDAWKEWAAAAHQPAGSGRGQMFDHFYFSLQAAVAGLGVAIGPWHLVRDDLESEVLVAPMGFVQDGSHYCLLTPEPVKDGSAQSALLDWLRTMA” it is “not soluble”. The entry for “MGSDKIHHHHHHMISHKKDQAAGLRELTALEPNAGVRVFAVVGGRTGVGKTSSVINLAVALAKTGKRVLILDENPRHKDVNANLGLSARYDLLHVINQDKTLEQVMTQGPEDVLVLTAMRGIHSLAKLSSADQERLIQCFSELSQTVDVVLIDTAIGRTSRVVPLSLASQQVLIVLSASGKAITDAYALIKLISQEYARRDFLVLVNKVESESMGRDIFENIAGVAQKHLAVKLEWMGCILFDEKLQRSTRLCQPVVEIFPTSASAAGYRQLAEKLMRCAGPWTDNDGVENFMRRLIRTSHLDIADFTV” is “not soluble”; for “MGSDKIHHHHHHMISKLAEIVGEEWVISGDEAKLYSYPAFIPLKIEPPVVVLPGSEEEVISLVNFLNENNIKYIVRGSGTSLSGATTPTQGEVVISLTRLNRIYSLDNFEITVGPGLANFLINKTLGNSNLFYAPDPSSYVVSSIGGNISHDSGGMHTPKYGTTFDSIIRLKVLLSNGHVEEIGSSNFFDPTSIFVGAEGTLGVILRATLRLFPKPEVSKTILASFNSIDDAGKAVVSVYKAGVTPAAMEFLDKNSIIAIENTQYKANYPMAEAILLIELDGYSVNVEEEEVRVVSAIRNNNGEVFIPKDEEEKNRWWWGRKGAFPSFAYYSPAYLTLDANVPRSTLPTMLRFTYEISKKYGLPVANSFHAGDGTLHPLIGFDPKNADETIKAIKAAEEITKLAIKVGGVPSGEHGIGIEKIKFMKLYYSEDDLTLMRRLKATFDPKRLLNPCKLIPPAKNEICNTVNRIHTYLLEGDI” it is “not soluble”; for “MGSDKIHHHHHHMISRTIQQLEDALGQQLFYRNTRAITPTESGKLFFEYAKRITEQFDEAQKALQDKTIEPSGLVRINAPVFFGQRHIAPWLAGLSERYPRLLIELIQTDEFIDPLRESTDLIFRIGALTDSSFHARIFGTQKYHLAASPQYVAKYGTLDHPTELNQHKCLVYKGFEGPNRWLVRKPNEEWVHYPITPLLSSNNAESLMTAALHSMGIVLFPDWLIGEALKKGDLIKLLPEYEVAIKSPPQHIAAIYPNVRHPPLNIRAVIDYFAEIYGDTPYWQN” it is “not soluble”. The entry for “MGSDKIHHHHHHMITNQKLKKSLEEIKNITSFDAILYSAKGKHLTGTVEEPEHSDIFVKEFIVSEEDVREKNDAIAFAVEIDSELEYVLVMFCPYTSENLVIGRMAVCQLRTLVLGESERYDRNNFIQNILLGNMLGSDIINRAKKLHIENRKRVVYVIDTGKNSNEIAVELAKNLADIRSGDFVVAMDEHNVVLVKDVEDIDSPKLQEKLSSIAGSLVDNLLAEAMIKVRVGYGNPTDVLPKITESYQEAKMALEVGRLFYVEKEIMAYDRLGIGRLIYQLPMSLCEMFIREVFGDEVPQILDDEEAMSTISKFFENNLNISETARQLYVHRNTLVYRLERIEKSIGLDIRTFDDAMIFKIATMVLAHIKDSRQGR” is “not soluble”; for “MGSDKIHHHHHHMIVTEYELLVCLAEELNMRKSAEKLFLSQPALSQRLQTIESRWNTKIFIRTQKGLLLTPEGEAIVRHASSVIEREHTIQEKLEAMEGVVRGTLRIACASVVAQMWLPRVLKAFSRTYPNVQISLVTGWSSEVTQQLAAGNVHIGIVRGSSTWKSVQKPLFNDKLILVDTEITKIEEVFQTNRPFIQFRSDSNYYQVIQDYWQRNFGKMPRQAMLMDQMETSRQMALNGIGFAILPEVTMIGYTDKINKIPLTEKDGSILSRETNLLTYEQSLSLPQVKAFLEITDKFLEQVK” it is “not soluble”; for “MGSDKIHHHHHHMIYISKEINTPLYDQIYRQIQGDIISGNLSPGTLLPGIRTLAKTLGVARNTVDKAYTQLAVEGYIIPRKGAGFAVESIRDSKKSAELQPLSSGVSAHPGHEKAEKKLPYDFQYGSFPEEYFPKTAWKKHMLEVLALPHLSAQMTQYQDKQGNLSLRCELQNYLYQTRGVVCTEDQILIGCGLHYSLDTLCKLFAGHKRIAMEEPGYNGAKEVFQNNGFTIRHIPSTPYGLDLSQLKTLAVPIVYVTPSHQFPYGTVLPISKRRELLEWAAEENAYIIEDDYDSEYRYDANPIPSLQSIDGHDRVIYIGTFSKSLSPSLRINYMVLPKSLLPAYHQMFSTYSSPVTWLTQEVLASFLRSGDYTRHVRRMCAAYRKRHDVFVQQLSQHFGPNIVLHGQGAGLHFLVEFAEEVEAEGLIQMAEEAGVRVYPVTPFWSASEACPPNLLFAGYSLLNERQIQEGLRLLKEVWAPVLEIK” it is “not soluble”. For the sequence “MGSDKIHHHHHHMIYKVISKDEFRNFVDALVRANTSYGPRQVDTDRNGEPIYQFMPVSSASEIAFDYTVTTSSAKHFLMPFREELSKFSFRDGDWDQEVKYDAPPIVLVGLRPCDINAINILDEVMLKGPYPSPYYLARRKNTFIIGMDHLPLPDCFCRSMNRHTTDHGFNLFASDIGESYFLSINSSKAFNFLKEFETTEPTEEDDCKLIERRKLIKQSFKTNVEVTGLPVFLDLEFDSPIWKKWGDKCLNCGSCAMVCPTCYCYNVEEHFETNLESSSRQRRLYSCNLIDFAEVTGGHNFRPKNGDRLKYRYYHHYRGFAVNDNQQICVGCNRCGRACLAGINPKDVINDLRLEKESCVTCVSPSPAKT”, the “soluble on expression in E. coli” value is “not soluble”.

“MGSDKIHHHHHHMKAGTQKTLTHSDLVEQGVRFLLASYVDLHGVPKAKAVPISHFDRMMNGSEMFTGAALDGVPQEISDEEVAAHPDMGSAIVLPWSKDIAWLPSDLYTQGEPFNACSRTILKKVRQQAAELGMAMQLGIEAEFFVLKDQEAGGFSPISTRHHLKKPAYDVARLLDNKPWLSELVEAMDSLDWGVYSFDHEDGIGQFEIDFSYFEVLRMADNFTFLRMMANEIARKHGGFASFMPKPYGDRAGSGAHFNISLTDINTGLNLFEPEQDDPRGCGLSTLGYQFIAGVLRHLPAICAVVAPTVNSYKRLVKQGSMSGFTWAPVFCCYGNNNRTNTIRIPLGGKRIEIRAVDSACNPYLGAAMILAAGLEGIRENLDPGDPHLDNMYEKTPEELASLGIRELPKTLEEAIDAFEADPLSRQVFGDQMFSAWTQYKREEWLSYITHVSDWEYDRYLKLF”: the “soluble on expression in E. coli” value is “not soluble”. The entry for “MGSDKIHHHHHHMKAQEVPSTTFTGGETVLTFKGGVHPPELKEWSKDKPIERAPLPQKVFVFLSNHAGNPAKPVVSPGDEVKTGQVIGEPEGFISAYLHSPVTGRVLEIKKILHPILGKPIEAIVIERTSDDEWVHIETGDFERMSKEEILEIIKKAGIVGLGGAMFPTHVKLSPPPEKKVDTLIVNGAECEPVLTIDHRLMLERAEDILQGILIMMKVLGVQKAVVGVESNKMDAYHNLKKVFKGYPVDVALLRTKYPQGAEKQLIYAITGRMVPRGGLPMDVGVVVQNVGTCVAVKEAVVDGKPLVERGMTVSGDAVKNQKNLIVRIGTPVKDVIDYCGGIDENTERVILGGPMMGISITNLDIPVMKGTSGITAFLPKKSRPQKPCIRCSECVQVCPMNLQPYLLYLLSTKRKYDEAVENGLMDCIECGSCTYTCPSKIEHVRYIKLAKTVYRATRRGRR” is “not soluble”; for “MGSDKIHHHHHHMKAVVIGGGVFGSLIARELTKYDLEVTLIEKNLDVGWGVTKANSAVVHAGYDDPPESVRAQFCASGNAMYEDLSKELDFDFKRIGSFVVAFNDEELKELERLLKQGEENGVPGLTILERDEVLSMEPNLNPEVKYALYAPTAGITEPWMVAIAAVENAVQNGLKLVLGESVVGFEKVNGRVRKVHTSRGEYEADIVINCAGLHADEIAKLAGAEYVPLHPRKGEYILLDKKLQGLVKRVIFPTPTKISKGILVLPTVDGGILLGPTAEDLPEEMKDRPITTREGLEKVREFTRRLVPSLDFSLVVKTFSGLRPESPQKDFFIKVSETVKNFVNVMATRSPGLTAAPAVAKYVVEELIQEKMRIPLEKKKDFKPERKRIVHYSELPLEEWRREIERDPRAGRLVCFCNEVTEKEIVEAIRRGARTLNGVKFRTRAMFGRCQGGFCMARILKILERELGVDMSEIKMKSENSWVVNGKVRE” it is “not soluble”; for “MGSDKIHHHHHHMKAVYPGSFDPITLGHVDIIKRALSIFDELVVLVTENPRKKCMFTLEERKKLIEEVLSDLDGVKVDVHHGLLVDYLKKHGIKVLVRGLRAVTDYEYELQMALANKKLYSDLETVFLIASEKFSFISSSLVKEVALYGGDVTEWVPPEVARALNEKLKEGKR” it is “soluble”.

These data come from the DeepSol protein solubility set.
